Results on one molecule are retold here after US20130004432A1 (INSTITUT NATIONAL DE LA SANTE ET DE LA RECHERCHE MEDICALE, published 2013).

This experiment has as its target T1, human B7H6 (human, UniProt Q68D85 25-454).
T1 construct: in the immunoblot and immunoprecipitation experiments it stood in cell lysates; residues 1-24 are not expressly called a signal peptide; also called P815.B7H6; P815.B7-H6
T1 sequence: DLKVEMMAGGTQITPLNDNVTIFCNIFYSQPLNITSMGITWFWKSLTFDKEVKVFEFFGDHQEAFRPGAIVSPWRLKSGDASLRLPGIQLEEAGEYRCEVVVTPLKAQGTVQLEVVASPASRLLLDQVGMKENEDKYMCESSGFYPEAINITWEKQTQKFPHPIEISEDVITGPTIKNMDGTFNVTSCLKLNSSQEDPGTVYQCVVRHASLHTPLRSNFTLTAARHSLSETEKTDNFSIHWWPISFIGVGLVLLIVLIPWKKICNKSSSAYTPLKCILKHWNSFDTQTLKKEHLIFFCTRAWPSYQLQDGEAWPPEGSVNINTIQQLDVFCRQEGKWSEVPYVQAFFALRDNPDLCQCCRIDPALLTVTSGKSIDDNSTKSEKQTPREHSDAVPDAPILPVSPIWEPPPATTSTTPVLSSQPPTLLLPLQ
The experiment can be described thus: FACS on P815.B7-H6 cells.

B1: NKp30Fc, soluble form of human NKp30 consisting of the extracellular domain of human NKp30 with a C-terminal Fc fusion (Fc fusion, UniProt O14931 19-135, looked up)
chain: LWVSQPPEIRTLEGSSAFLPCSFNASQGRLAIGSVTWFRDEVVPGKEVRNGTPEFRGRLAPLASSRFLHDHQAELHIRDVRGHDASIYVCRVEVLGLGVGTGNGTRLVVEKEHPQLG
notes: extracellular domain; not shown: C-terminal Fc
As for B1, the binding result was “binds”.
